Substitutions are numbered along the chain they refer to.
Columns and labels:
[1] = target: T1, IL-4 receptor protein immobilised on carboxymethyl dextran chip (SPR) (Homo sapiens (Human), UniProt P24394 26-232); experiment: SPR, IL-4 receptor immobilised
T1 construct: Soluble protein coupled to the chip by EDC/NHS
T1 sequence: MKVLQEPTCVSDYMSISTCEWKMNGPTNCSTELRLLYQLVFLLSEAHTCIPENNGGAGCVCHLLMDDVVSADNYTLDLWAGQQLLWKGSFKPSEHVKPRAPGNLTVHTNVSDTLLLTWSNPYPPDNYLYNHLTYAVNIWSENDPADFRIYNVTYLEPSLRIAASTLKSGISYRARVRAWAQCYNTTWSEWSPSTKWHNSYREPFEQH
Experimental: (§1) Here, the right channel was used as a reference channel. In the two channels, left channel and right channel, 1M ethanolamine (pH 8.5) solution was allowed to flow over the unreacted surface for 7 min for blocking, so as to reduce non-specific adsorption thereof. All test procedures were conducted at a temperature of 25° C. and the flow rate was 25 ul/min.

[2] = target: T1, IL-4 receptor protein immobilised on …; experiment: SPR, IL-4 receptor immobilised, equilibrium fit
Experimental: as §1
The buffer (20 mM Tris-HCl pH 8.0, 150 mM NaCl, 180 mM Histidine, 62.5 ug/ml BSA, 0.005% Tween 20) was used through filtering and degassing. […] For regeneration, 2 M NaCl was allowed to flow over for 1 h to wash the proteins remaining without dissociation.
In the binding graph, the RU value expressing the amount of bound protein was measured by subtracting the blank (buffer) value and reference channel (right channel) value, using Scrubber software. The KD value was obtained from the binding RU (Req) values measured at the respective concentrations using KaleidaGraph software.

B1: FTL-AP1_AP1: fusion polypeptide in which AP1S was fused to N-terminal of FTL_GG-AP1S (designed binder)
chain: MRKRLDRNGGGSGMSSQIRQNYSTDVEAAVNSLVNLYLQASYTYLSLGFYFDRDDVALEGVSHFFRELAEEKREGYERLLKMQNQRGGRALFQDIKKPAEDEWGKTPDAMKAAMALEKKLNQALLDLHALGSARTDPHLCDFLETHFLDEEVKLIKKMGDHLTNLHRGSRKRLDRNGGPEAGLGEYLFERLTLKHD
modifications: One monomer is given; it assembles into a 24-mer ferritin cage.
notes: Expressed from pET28a(+) via NdeI/XhoI and purified on Ni-NTA (His tag); also called ferritin having two inserted AP1 peptides; not shown: His tag from the pET28a(+) vector (Ni-NTA purification)
Kd [1]: 0.0458 nM | fold enhancement of binding affinity against FTL-AP1 [1]: 10 times | koff [1]: 3.8e-05 s⁻¹ | kon [1]: 826000 M⁻¹ s⁻¹

B2: FTL-GG-AP1S: ferritin having AP1S inserted in GG cassette (human ferritin light chain, fourth loop) (designed binder)
chain: MSSQIRQNYSTDVEAAVNSLVNLYLQASYTYLSLGFYFDRDDVALEGVSHFFRELAEEKREGYERLLKMQNQRGGRALFQDIKKPAEDEWGKTPDAMKAAMALEKKLNQALLDLHALGSARTDPHLCDFLETHFLDEEVKLIKKMGDHLTNLHRGSRKRLDRNGGPEAGLGEYLFERLTLKHD
modifications: One monomer is given; it assembles into a 24-mer ferritin cage.
notes: It forms a ferritin-like cage (24-mer); also called FTL-AP1; not shown: His tag from the pET28a(+) vector (Ni-NTA purification, anti-His probe)
Kd [1]: 0.443 nM | koff [1]: 0.00125 s⁻¹ | kon [1]: 1.22e+06 M⁻¹ s⁻¹ | Kd [2]: 1.19 nM

B3: FTL-GP-AP1S: ferritin having AP1S inserted in GP cassette (human ferritin light chain, fourth loop) (designed binder)
chain: B2 chain with G155L, S156G, R157S, K158R, R159K, L160R, D161L, R162D, N163R, G164N
modifications: One monomer is given; it assembles into a 24-mer ferritin cage.
notes: pET28a(+) expression with Ni-NTA purification (His tag); Cage-forming; not shown: His tag from the pET28a(+) vector (Ni-NTA purification, anti-His probe)
Kd [2]: 4.29 nM

B4: FTL-GG-AP1L: ferritin having AP1L inserted in GG cassette (human ferritin light chain, fourth loop) (designed binder)
chain: MSSQIRQNYSTDVEAAVNSLVNLYLQASYTYLSLGFYFDRDDVALEGVSHFFRELAEEKREGYERLLKMQNQRGGRALFQDIKKPAEDEWGKTPDAMKAAMALEKKLNQALLDLHALGSARTDPHLCDFLETHFLDEEVKLIKKMGDHLTNLHRGSCRKRLDRNCGGPEAGLGEYLFERLTLKHD
modifications: One monomer is given; it assembles into a 24-mer ferritin cage.
notes: pET28a(+) expression with Ni-NTA purification (His tag); Cage-forming; also called 157cysAP1-PBNC; not shown: His tag from the pET28a(+) vector (Ni-NTA purification, anti-His probe)
Kd [2]: 25.9 nM

B5: FTL-GP-AP1L: ferritin having AP1L inserted in GP cassette (human ferritin light chain, fourth loop) (designed binder)
chain: MSSQIRQNYSTDVEAAVNSLVNLYLQASYTYLSLGFYFDRDDVALEGVSHFFRELAEEKREGYERLLKMQNQRGGRALFQDIKKPAEDEWGKTPDAMKAAMALEKKLNQALLDLHALGSARTDPHLCDFLETHFLDEEVKLIKKMGDHLTNLHRLGSCRKRLDRNCGPEAGLGEYLFERLTLKHD
modifications: One monomer is given; it assembles into a 24-mer ferritin cage.
notes: as for B3
Kd [2]: 9.9 nM

Reference: US20160060307A1 (KYUNGPOOK NATIONAL UNIVERSITY INDUSTRY ACADEMIC COOPERATION …, published 2016)
